This is an account of results in patent USRE49847 (dated 2024).

This experiment concerns the target T1, soluble CD22-Fc (R&D Systems) (UniProt P20273 20-687).
T1 construct: Bought reagent used to stain CD22 CARs; not shown: Fc part; detected with anti-human IgG Fc-gamma secondary
T1 sequence (looked up): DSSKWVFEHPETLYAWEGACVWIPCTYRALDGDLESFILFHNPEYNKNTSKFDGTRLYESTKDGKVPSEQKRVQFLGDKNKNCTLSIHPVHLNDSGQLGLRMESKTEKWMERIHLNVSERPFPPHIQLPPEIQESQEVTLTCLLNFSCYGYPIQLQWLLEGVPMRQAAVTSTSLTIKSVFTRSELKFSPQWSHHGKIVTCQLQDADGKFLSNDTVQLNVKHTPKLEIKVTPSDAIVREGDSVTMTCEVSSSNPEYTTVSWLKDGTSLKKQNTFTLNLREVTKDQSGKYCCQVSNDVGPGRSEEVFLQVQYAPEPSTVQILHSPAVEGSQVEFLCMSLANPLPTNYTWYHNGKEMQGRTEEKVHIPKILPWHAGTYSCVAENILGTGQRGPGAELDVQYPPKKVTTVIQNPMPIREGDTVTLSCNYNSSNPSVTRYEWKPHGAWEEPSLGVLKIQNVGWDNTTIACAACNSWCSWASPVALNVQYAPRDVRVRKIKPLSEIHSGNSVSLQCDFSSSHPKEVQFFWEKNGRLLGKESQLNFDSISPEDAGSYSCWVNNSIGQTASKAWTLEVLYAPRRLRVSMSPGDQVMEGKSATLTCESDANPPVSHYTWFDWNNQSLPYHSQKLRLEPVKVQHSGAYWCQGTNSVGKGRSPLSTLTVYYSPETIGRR
The experiment can be described thus: FACS surface staining of transduced JNL cells with CD22-Fc.

B1: tandem CD19/CD22 CAR construct 172 (other)
chain: EIVMTQSPATLSLSPGERATLSCRASQDISKYLNWYQQKPGQAPRLLIYHTSRLHSGIPARFSGSGSGTDYTLTISSLQPEDFAVYFCQQGNTLPYTFGQGTKLEIKGGGGSGGGGSGGGGSQVQLQESGPGLVKPSETLSLTCTVSGVSLPDYGVSWIRQPPGKGLEWIGVIWGSETTYYQSSLKSRVTISKDNSKNQVSLKLSSVTAADTAVYYCAKHYYYGGSYAMDYWGQGTLVTVSSGGGGSEVQLQQSGPGLVKPSQTLSLTCAISGDSMLSNSDTWNWIRQSPSRGLEWLGRTYHRSTWYDDYASSVRGRVSINVDTSKNQYSLQLNAVTPEDTGVYYCARVRLQDGNSWSDAFDVWGQGTMVTVSSGGGGSGGGGSGGGGSQSALTQPASASGSPGQSVTISCTGTSSDVGGYNYVSWYQQHPGKAPKLMIYDVSNRPSGVSNRFSGSKSGNTASLTISGLQAEDEADYYCSSYTSSSTLYVFGTGTQLTVLTTTPAPRPPTPAPTIASQPLSLRPEACRPAAGGAVHTRGLDFACDIYIWAPLAGTCGVLLLSLVITLYCKRGRKKLLYIFKQPFMRPVQTTQEEDGCSCRFPEEEEGGCELRVKFSRSADAPAYQQGQNQLYNELNLGRREEYDVLDKRRGRDPEMGGKPRRKNPQEGLYNELQKDKMAEAYSEIGMKGERRRGKGHDGLYQGLSTATKDTYDALHMQALPPR
notes: Distal anti-CD19 scFv, GGGGS, proximal anti-CD22 scFv H/L; leader 1-21 left out; end of range counted without it; also called CG#c172; c172
Regarding B1, the binding result is reported as “binds”.

B2: tandem CD19/CD22 CAR construct 174 (other)
chain: EIVMTQSPATLSLSPGERATLSCRASQDISKYLNWYQQKPGQAPRLLIYHTSRLHSGIPARFSGSGSGTDYTLTISSLQPEDFAVYFCQQGNTLPYTFGQGTKLEIKGGGGSGGGGSGGGGSQVQLQESGPGLVKPSETLSLTCTVSGVSLPDYGVSWIRQPPGKGLEWIGVIWGSETTYYQSSLKSRVTISKDNSKNQVSLKLSSVTAADTAVYYCAKHYYYGGSYAMDYWGQGTLVTVSSGGGGSEVQLQQSGPGLVKPSQTLSLTCAISGDSMLSNSDTWNWIRQSPSRGLEWLGRTYHRSTWYDDYASSVRGRVSINVDTSKNQYSLQLNAVTPEDTGVYYCARVRLQDGNSWSDAFDVWGQGTMVTVSSGGGGSQSALTQPASASGSPGQSVTISCTGTSSDVGGYNYVSWYQQHPGKAPKLMIYDVSNRPSGVSNRFSGSKSGNTASLTISGLQAEDEADYYCSSYTSSSTLYVFGTGTQLTVLTTTPAPRPPTPAPTIASQPLSLRPEACRPAAGGAVHTRGLDFACDIYIWAPLAGTCGVLLLSLVITLYCKRGRKKLLYIFKQPFMRPVQTTQEEDGCSCRFPEEEEGGCELRVKFSRSADAPAYQQGQNQLYNELNLGRREEYDVLDKRRGRDPEMGGKPRRKNPQEGLYNELQKDKMAEAYSEIGMKGERRRGKGHDGLYQGLSTATKDTYDALHMQALPPR
notes: Distal anti-CD19 scFv, GGGGS, proximal anti-CD22 scFv H/L with short linker; leader 1-21 left out; also called CG#c174; c174
As for B2, the binding result is reported as “binds”.

B3: tandem CD19/CD22 CAR construct 171 (other)
chain: EIVMTQSPATLSLSPGERATLSCRASQDISKYLNWYQQKPGQAPRLLIYHTSRLHSGIPARFSGSGSGTDYTLTISSLQPEDFAVYFCQQGNTLPYTFGQGTKLEIKGGGGSGGGGSGGGGSQVQLQESGPGLVKPSETLSLTCTVSGVSLPDYGVSWIRQPPGKGLEWIGVIWGSETTYYQSSLKSRVTISKDNSKNQVSLKLSSVTAADTAVYYCAKHYYYGGSYAMDYWGQGTLVTVSSLAEAAAKEVQLQQSGPGLVKPSQTLSLTCAISGDSMLSNSDTWNWIRQSPSRGLEWLGRTYHRSTWYDDYASSVRGRVSINVDTSKNQYSLQLNAVTPEDTGVYYCARVRLQDGNSWSDAFDVWGQGTMVTVSSGGGGSGGGGSGGGGSQSALTQPASASGSPGQSVTISCTGTSSDVGGYNYVSWYQQHPGKAPKLMIYDVSNRPSGVSNRFSGSKSGNTASLTISGLQAEDEADYYCSSYTSSSTLYVFGTGTQLTVLTTTPAPRPPTPAPTIASQPLSLRPEACRPAAGGAVHTRGLDFACDIYIWAPLAGTCGVLLLSLVITLYCKRGRKKLLYIFKQPFMRPVQTTQEEDGCSCRFPEEEEGGCELRVKFSRSADAPAYQQGQNQLYNELNLGRREEYDVLDKRRGRDPEMGGKPRRKNPQEGLYNELQKDKMAEAYSEIGMKGERRRGKGHDGLYQGLSTATKDTYDALHMQALPPR
notes: Distal anti-CD19 scFv, LAEAAAK, proximal anti-CD22 scFv H/L; also called CG#c171; c171
On to B3, for which the binding result was “binds”.

B4: tandem CD19/CD22 CAR construct 173 (other)
chain: EIVMTQSPATLSLSPGERATLSCRASQDISKYLNWYQQKPGQAPRLLIYHTSRLHSGIPARFSGSGSGTDYTLTISSLQPEDFAVYFCQQGNTLPYTFGQGTKLEIKGGGGSGGGGSGGGGSQVQLQESGPGLVKPSETLSLTCTVSGVSLPDYGVSWIRQPPGKGLEWIGVIWGSETTYYQSSLKSRVTISKDNSKNQVSLKLSSVTAADTAVYYCAKHYYYGGSYAMDYWGQGTLVTVSSLAEAAAKEVQLQQSGPGLVKPSQTLSLTCAISGDSMLSNSDTWNWIRQSPSRGLEWLGRTYHRSTWYDDYASSVRGRVSINVDTSKNQYSLQLNAVTPEDTGVYYCARVRLQDGNSWSDAFDVWGQGTMVTVSSGGGGSQSALTQPASASGSPGQSVTISCTGTSSDVGGYNYVSWYQQHPGKAPKLMIYDVSNRPSGVSNRFSGSKSGNTASLTISGLQAEDEADYYCSSYTSSSTLYVFGTGTQLTVLTTTPAPRPPTPAPTIASQPLSLRPEACRPAAGGAVHTRGLDFACDIYIWAPLAGTCGVLLLSLVITLYCKRGRKKLLYIFKQPFMRPVQTTQEEDGCSCRFPEEEEGGCELRVKFSRSADAPAYQQGQNQLYNELNLGRREEYDVLDKRRGRDPEMGGKPRRKNPQEGLYNELQKDKMAEAYSEIGMKGERRRGKGHDGLYQGLSTATKDTYDALHMQALPPR
notes: Distal anti-CD19 scFv, LAEAAAK, proximal anti-CD22 scFv H/L with short linker; leader 1-21 left out; also called CG#c173; c173
As to B4, the binding result is “binds”.

B5: control anti-CD22 CAR CAR22-65 (other)
chain: EVQLQQSGPGLVKPSQTLSLTCAISGDSMLSNSDTWNWIRQSPSRGLEWLGRTYHRSTWYDDYASSVRGRVSINVDTSKNQYSLQLNAVTPEDTGVYYCARVRLQDGNSWSDAFDVWGQGTMVTVSSGGGGSGGGGSGGGGSQSALTQPASASGSPGQSVTISCTGTSSDVGGYNYVSWYQQHPGKAPKLMIYDVSNRPSGVSNRFSGSKSGNTASLTISGLQAEDEADYYCSSYTSSSTLYVFGTGTQLTVL
notes: also called CAR22-65 Long; not shown: hinge, transmembrane, 4-1BB and CD3zeta parts of the CAR
In the case of B5, the binding result is “binds”.

B6: tandem CD22/CD19 CAR construct 182 (other)
chain: EVQLQQSGPGLVKPSQTLSLTCAISGDSMLSNSDTWNWIRQSPSRGLEWLGRTYHRSTWYDDYASSVRGRVSINVDTSKNQYSLQLNAVTPEDTGVYYCARVRLQDGNSWSDAFDVWGQGTMVTVSSGGGGSGGGGSGGGGSQSALTQPASASGSPGQSVTISCTGTSSDVGGYNYVSWYQQHPGKAPKLMIYDVSNRPSGVSNRFSGSKSGNTASLTISGLQAEDEADYYCSSYTSSSTLYVFGTGTQLTVLGGGGSEIVMTQSPATLSLSPGERATLSCRASQDISKYLNWYQQKPGQAPRLLIYHTSRLHSGIPARFSGSGSGTDYTLTISSLQPEDFAVYFCQQGNTLPYTFGQGTKLEIKGGGGSGGGGSGGGGSQVQLQESGPGLVKPSETLSLTCTVSGVSLPDYGVSWIRQPPGKGLEWIGVIWGSETTYYQSSLKSRVTISKDNSKNQVSLKLSSVTAADTAVYYCAKHYYYGGSYAMDYWGQGTLVTVSSTTTPAPRPPTPAPTIASQPLSLRPEACRPAAGGAVHTRGLDFACDIYIWAPLAGTCGVLLLSLVITLYCKRGRKKLLYIFKQPFMRPVQTTQEEDGCSCRFPEEEEGGCELRVKFSRSADAPAYQQGQNQLYNELNLGRREEYDVLDKRRGRDPEMGGKPRRKNPQEGLYNELQKDKMAEAYSEIGMKGERRRGKGHDGLYQGLSTATKDTYDALHMQALPPR
notes: Distal anti-CD22 scFv H/L, GGGGS, proximal anti-CD19 scFv; leader 1-21 left out; also called CG#c182; c182
Take B6: the binding result is “binds”.

B7: tandem CD22/CD19 CAR construct 181 (other)
chain: EVQLQQSGPGLVKPSQTLSLTCAISGDSMLSNSDTWNWIRQSPSRGLEWLGRTYHRSTWYDDYASSVRGRVSINVDTSKNQYSLQLNAVTPEDTGVYYCARVRLQDGNSWSDAFDVWGQGTMVTVSSGGGGSGGGGSGGGGSQSALTQPASASGSPGQSVTISCTGTSSDVGGYNYVSWYQQHPGKAPKLMIYDVSNRPSGVSNRFSGSKSGNTASLTISGLQAEDEADYYCSSYTSSSTLYVFGTGTQLTVLLAEAAAKEIVMTQSPATLSLSPGERATLSCRASQDISKYLNWYQQKPGQAPRLLIYHTSRLHSGIPARFSGSGSGTDYTLTISSLQPEDFAVYFCQQGNTLPYTFGQGTKLEIKGGGGSGGGGSGGGGSQVQLQESGPGLVKPSETLSLTCTVSGVSLPDYGVSWIRQPPGKGLEWIGVIWGSETTYYQSSLKSRVTISKDNSKNQVSLKLSSVTAADTAVYYCAKHYYYGGSYAMDYWGQGTLVTVSSTTTPAPRPPTPAPTIASQPLSLRPEACRPAAGGAVHTRGLDFACDIYIWAPLAGTCGVLLLSLVITLYCKRGRKKLLYIFKQPFMRPVQTTQEEDGCSCRFPEEEEGGCELRVKFSRSADAPAYQQGQNQLYNELNLGRREEYDVLDKRRGRDPEMGGKPRRKNPQEGLYNELQKDKMAEAYSEIGMKGERRRGKGHDGLYQGLSTATKDTYDALHMQALPPR
notes: Distal anti-CD22 scFv H/L, LAEAAAK, proximal anti-CD19 scFv; leader 1-21 left out; also called CG#c181; c181
On to B7, for which the binding result is reported as “binds”.

B8: tandem CD22/CD19 CAR construct 183 (other)
chain: EVQLQQSGPGLVKPSQTLSLTCAISGDSMLSNSDTWNWIRQSPSRGLEWLGRTYHRSTWYDDYASSVRGRVSINVDTSKNQYSLQLNAVTPEDTGVYYCARVRLQDGNSWSDAFDVWGQGTMVTVSSGGGGSQSALTQPASASGSPGQSVTISCTGTSSDVGGYNYVSWYQQHPGKAPKLMIYDVSNRPSGVSNRFSGSKSGNTASLTISGLQAEDEADYYCSSYTSSSTLYVFGTGTQLTVLLAEAAAKEIVMTQSPATLSLSPGERATLSCRASQDISKYLNWYQQKPGQAPRLLIYHTSRLHSGIPARFSGSGSGTDYTLTISSLQPEDFAVYFCQQGNTLPYTFGQGTKLEIKGGGGSGGGGSGGGGSQVQLQESGPGLVKPSETLSLTCTVSGVSLPDYGVSWIRQPPGKGLEWIGVIWGSETTYYQSSLKSRVTISKDNSKNQVSLKLSSVTAADTAVYYCAKHYYYGGSYAMDYWGQGTLVTVSSTTTPAPRPPTPAPTIASQPLSLRPEACRPAAGGAVHTRGLDFACDIYIWAPLAGTCGVLLLSLVITLYCKRGRKKLLYIFKQPFMRPVQTTQEEDGCSCRFPEEEEGGCELRVKFSRSADAPAYQQGQNQLYNELNLGRREEYDVLDKRRGRDPEMGGKPRRKNPQEGLYNELQKDKMAEAYSEIGMKGERRRGKGHDGLYQGLSTATKDTYDALHMQALPPR
notes: Distal anti-CD22 scFv H/L short linker, LAEAAAK, proximal anti-CD19 scFv; leader 1-21 left out; also called CG#c183; c183
For B8, the binding result is “binds”.
